In the supplement of paper PMC7125110:
± gives the standard error. This sample holds only a part of the variants without activity.

B1: glmS ribozyme (parent)
chain: AUAAAAGCGCCAGAACUACAGAAAUGUAGUUGACGAGGAGGAGGUUUAUCGAAUUUUCGGCGGAUGCCUCCAAA

How the values were obtained:
Details in all cases: with glucosamine-6-phosphate
[1] = variants of: B1; experiment: self-cleavage kobs at 40 uM GlcN6P; higher = faster cleavage; RNA array
Outline: (§1)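 Over ~14 h at 37 °C, tiles were imaged as glucosamine-6-phosphate (40 μM to 10 mM) in HEPES/KCl/Mg(OAc)2 buffer flowed across sequenced MiSeq chips. The chips carried barcoded ribozyme variants transcribed in situ by E. coli RNA polymerase and tracked with a hybridised Cy3 probe. After normalisation to baseline and to non-cleaving reference variants, one- or two-exponential decay fits of per-tile medians gave kobs. kcat and KM followed from weighted Michaelis–Menten fits across concentrations.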

[2] = variants of: B1; experiment: self-cleavage kobs at 10000 uM GlcN6P; higher = faster cleavage; RNA array
Outline: as §1

[3] = variants of: B1; experiment: self-cleavage kobs at 640 uM GlcN6P; higher = faster cleavage; RNA array
Outline: as §1

[4] = variants of: B1; experiment: self-cleavage kobs at 2500 uM GlcN6P; higher = faster cleavage; RNA array
Outline: as §1

[5] = variants of: B1; experiment: self-cleavage kobs at 160 uM GlcN6P; higher = faster cleavage; RNA array
Outline: as §1

Variant | self-cleavage kobs at 40 uM GlcN6P [1] [s⁻¹] | self-cleavage kobs at 10000 uM GlcN6P [2] [s⁻¹] | self-cleavage kobs at 640 uM GlcN6P [3] [s⁻¹] | self-cleavage kobs at 2500 uM GlcN6P [4] [s⁻¹] | self-cleavage kobs at 160 uM GlcN6P [5] [s⁻¹]
A6U G44C C50A | < 1e-05 |  |  |  | 
G7U G40C G43C | < 1e-05 | < 1e-05 |  |  | 
G7C G9U | < 1e-05 | < 1e-05 | < 1e-05 |  | 
C8A U30G U31C | < 1e-05 | < 1e-05 |  | < 1e-05 | 
G7C A42C C61U | < 1e-05 |  |  |  | 
C8G C58A | < 1e-05 | < 1e-05 | < 1e-05 | < 1e-05 | < 1e-05
G7C U57A | < 1e-05 |  |  |  | < 1e-05
A6U G35A | < 1e-05 |  | < 1e-05 |  | < 1e-05
G7A G32U A39G C58A | < 1e-05 | < 1e-05 |  |  | 
C8G A48G C58G | < 1e-05 | < 1e-05 | < 1e-05 |  | < 1e-05
A6U G9A A33G C68U C71G | 0.000234 ± 0.0001 | 4.24e-05 ± 1.8e-05 |  |  | 
G7C A52C | < 1e-05 |  | < 1e-05 | < 1e-05 | < 1e-05
G7A G43U | < 1e-05 | < 1e-05 | < 1e-05 | < 1e-05 | < 1e-05
G7C A33U G41A U56A C71U | < 1e-05 |  |  |  | 
A6U U31C G41A | < 1e-05 | < 1e-05 |  |  | 
G7A C10U U45G C70G | < 1e-05 | < 1e-05 | < 1e-05 | < 1e-05 | 
G7A A14C G40A U49A C71U | < 1e-05 |  |  |  | 
C8G A33C C67G | < 1e-05 |  | < 1e-05 |  | 
C8A U49G | < 1e-05 | < 1e-05 | < 1e-05 | < 1e-05 | < 1e-05
C8A A33U G44A A64U | < 1e-05 |  | < 1e-05 |  | 
G7U G60C | < 1e-05 | < 1e-05 | < 1e-05 |  | < 1e-05
C8A C50G A53U C67U | 0.000239 ± 5.6e-05 | 0.000304 ± 5e-05 | 0.000168 ± 5.7e-05 | 0.000626 ± 0.00028 | 
G7U G43A | < 1e-05 | < 1e-05 | < 1e-05 | < 1e-05 | < 1e-05

Variant | self-cleavage kobs at 40 uM GlcN6P [1] [s⁻¹] | self-cleavage kobs at 10000 uM GlcN6P [2] [s⁻¹] | self-cleavage kobs at 640 uM GlcN6P [3] [s⁻¹] | self-cleavage kobs at 2500 uM GlcN6P [4] [s⁻¹] | self-cleavage kobs at 160 uM GlcN6P [5] [s⁻¹]
G7U G43C | < 1e-05 |  | < 1e-05 |  | < 1e-05
G7A U46C | < 1e-05 | < 1e-05 | < 1e-05 |  | 
G7A A12C U30G | < 1e-05 |  |  |  | 
G7A G59A | < 1e-05 | < 1e-05 | < 1e-05 | < 1e-05 | < 1e-05
G7A G40A A52C | < 1e-05 | < 1e-05 | < 1e-05 |  | 
G7C G9C A15U | < 1e-05 | < 1e-05 |  |  | 
A6U G29U C50U G66C | < 1e-05 | < 1e-05 |  |  | 
G7A U30A | < 1e-05 |  |  | < 1e-05 | < 1e-05
C8A A48U | < 1e-05 |  | < 1e-05 | < 1e-05 | 
G7A C58G | < 1e-05 |  | < 1e-05 |  | < 1e-05
G7A G41U A42G A52G | < 1e-05 | < 1e-05 |  |  | 
G7C C8G C50G U55A | 7.03e-05 ± 2.9e-05 |  |  |  | 
C8A G26U A33C | < 1e-05 |  |  |  | 
G7U C16G A36C A42C A52G | < 1e-05 |  |  |  | 
G7C A33G | < 1e-05 | < 1e-05 | < 1e-05 |  | < 1e-05
G7C A33U | < 1e-05 | < 1e-05 |  | < 1e-05 | < 1e-05
G7U A14U U55C G63U C70A | < 1e-05 |  | < 1e-05 | < 1e-05 | 
G7A C8G A12C | < 1e-05 |  |  |  | 
C8G C34A | < 1e-05 | < 1e-05 |  | < 1e-05 | < 1e-05
G7C G59A | < 1e-05 | < 1e-05 | < 1e-05 |  | < 1e-05
C8G A14G U31C | < 1e-05 |  |  |  | 
G7U G44U | < 1e-05 | < 1e-05 | < 1e-05 |  | < 1e-05
G7A C50G C71U | 0.000141 ± 3.5e-05 | 9.72e-05 ± 2.2e-05 | 0.000136 ± 3.9e-05 | 0.000177 ± 3.7e-05 | 0.000482 ± 9.3e-05

Variant | self-cleavage kobs at 40 uM GlcN6P [1] [s⁻¹] | self-cleavage kobs at 10000 uM GlcN6P [2] [s⁻¹] | self-cleavage kobs at 640 uM GlcN6P [3] [s⁻¹] | self-cleavage kobs at 2500 uM GlcN6P [4] [s⁻¹] | self-cleavage kobs at 160 uM GlcN6P [5] [s⁻¹]
G7U G35A G40C G43C C58G | < 1e-05 |  |  |  | 
G7U A14C U56G | < 1e-05 | < 1e-05 | < 1e-05 | < 1e-05 | < 1e-05
G7U G43U C50U G51C | < 1e-05 | < 1e-05 |  |  | 
G7A U57G C61A | < 1e-05 |  |  |  | 
G7U A12C C50G C61A | 0.000187 ± 7.2e-05 | 0.000332 ± 0.00012 |  |  | 
A6U U55G G62C C70A | < 1e-05 |  |  |  | 
G7A G40C | < 1e-05 |  | < 1e-05 | < 1e-05 | < 1e-05
G7U C11U | < 1e-05 | < 1e-05 | < 1e-05 | < 1e-05 | < 1e-05
G7C C16G C61A | < 1e-05 | < 1e-05 | < 1e-05 | < 1e-05 | 
G7U C11G A12C A42U | < 1e-05 |  |  | < 1e-05 | 
G7C C34U G35A G37U A42U G43U C71A | < 1e-05 |  | < 1e-05 |  | 
C8A A12U | < 1e-05 | < 1e-05 | < 1e-05 | < 1e-05 | 
C8A A12G | < 1e-05 | < 1e-05 | < 1e-05 | < 1e-05 | < 1e-05
G7A C16A U31C G32U G41C | < 1e-05 |  |  |  | 
G7A U30G U45G C67G C68A | 0.000126 ± 4e-05 | 0.00014 ± 3.6e-05 |  |  | 
C8G A15G A39G C67G | < 1e-05 |  |  |  | 
G7U U46G | < 1e-05 | < 1e-05 | < 1e-05 | < 1e-05 | < 1e-05
G7C C68A | < 1e-05 | < 1e-05 |  | < 1e-05 | < 1e-05
G7A A15G G51U C58G A64U C70A | 0.000522 ± 0.00019 | 0.000462 ± 0.00017 |  |  | 
G7U G9C A42G A52U | < 1e-05 |  | < 1e-05 |  | 
G7U G38U C71A | < 1e-05 | < 1e-05 |  |  | 
G7U A52C C70U | < 1e-05 | < 1e-05 | < 1e-05 | < 1e-05 | 
G7C C58U | < 1e-05 | < 1e-05 |  | < 1e-05 | 

Variant | self-cleavage kobs at 40 uM GlcN6P [1] [s⁻¹] | self-cleavage kobs at 10000 uM GlcN6P [2] [s⁻¹] | self-cleavage kobs at 640 uM GlcN6P [3] [s⁻¹] | self-cleavage kobs at 2500 uM GlcN6P [4] [s⁻¹] | self-cleavage kobs at 160 uM GlcN6P [5] [s⁻¹]
C8G A12U A33U G60C | < 1e-05 | < 1e-05 |  |  | 
G7U A52G C71U | < 1e-05 |  |  |  | 
G7C U65A | < 1e-05 | < 1e-05 | < 1e-05 |  | 
C8A G29C | < 1e-05 | < 1e-05 | < 1e-05 | < 1e-05 | < 1e-05
G7A A15G C61U C71U | < 1e-05 |  |  | < 1e-05 | < 1e-05
A6U G44C | < 1e-05 |  | < 1e-05 | < 1e-05 | < 1e-05
G7A U56G | < 1e-05 |  | < 1e-05 |  | 
A6U U49G | < 1e-05 |  | < 1e-05 | < 1e-05 | < 1e-05
G7U U45C U56A | < 1e-05 |  | < 1e-05 | < 1e-05 | 
G7C C16A U47C A53U | < 1e-05 | < 1e-05 |  |  | 
C8A G35C G66A C70G | < 1e-05 | < 1e-05 |  |  | 
C8G A39C U55G G59U | < 1e-05 | < 1e-05 |  |  | 
C8A G35C | < 1e-05 | < 1e-05 | < 1e-05 | < 1e-05 | < 1e-05
C8A G62A | < 1e-05 | < 1e-05 | < 1e-05 |  | < 1e-05
G7C C10A | < 1e-05 | < 1e-05 |  | < 1e-05 | 
A6U G7U C58G U69G | 0.000141 ± 4.3e-05 | 0.000123 ± 3.5e-05 |  |  | 
G7C A39G C70U | < 1e-05 | < 1e-05 |  |  | 
C8A C11U U46C A53U | < 1e-05 |  |  |  | 
C8A C50A | < 1e-05 | < 1e-05 | < 1e-05 | < 1e-05 | < 1e-05
G7C U30G | < 1e-05 | < 1e-05 | < 1e-05 | < 1e-05 | < 1e-05
G7U G43U A52G C68A C70U | < 1e-05 |  |  |  | 
G7C A39C | < 1e-05 | < 1e-05 |  |  | < 1e-05
